The text below walks through data of US20220064329A1.

The experiment addresses recombinant human activated Factor VII (FVIIa) (human) (UniProt P08709). Description: cell-based or functional assay.

recombinant human activated Factor VII (FVIIa) (human), sequence (P08709 61-212, chain 1 of 2): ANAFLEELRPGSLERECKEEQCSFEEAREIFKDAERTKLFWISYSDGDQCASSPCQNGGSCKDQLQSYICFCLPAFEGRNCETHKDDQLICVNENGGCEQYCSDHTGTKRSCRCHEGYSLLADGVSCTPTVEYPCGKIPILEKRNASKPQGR
recombinant human activated Factor VII (FVIIa) (human), sequence (P08709 213-466, chain 2 of 2): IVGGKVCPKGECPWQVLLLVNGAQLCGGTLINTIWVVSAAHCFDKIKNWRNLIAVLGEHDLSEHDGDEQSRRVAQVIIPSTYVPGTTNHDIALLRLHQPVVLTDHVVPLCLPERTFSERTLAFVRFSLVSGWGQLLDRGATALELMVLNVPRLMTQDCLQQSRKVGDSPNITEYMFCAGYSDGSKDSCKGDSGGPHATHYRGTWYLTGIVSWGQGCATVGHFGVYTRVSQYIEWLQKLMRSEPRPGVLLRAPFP

For “human plasma-derived alpha-2-macroglobulin (from UniProt P01023 24-1474)”, the apparent second order rate constant of inhibition of FVIIa by alpha-2-macroglobulin, no antibody was 475 M⁻¹ s⁻¹.

“human plasma-derived antithrombin (AT) (from UniProt P01008 33-464)”: the apparent second order rate constant (kinh) of inhibition of free FVIIa by antithrombin was 124 M⁻¹ s⁻¹.
